Results from PMC3502708 (Journal of molecular biology, 2012).
Where no end group is shown, it is not given here. Me3 = trimethyl (trimethylated lysine)

Columns and labels:
[1] = target: T1, MORF PHD1/2 fingers (aa 211-329) (human, UniProt Q8WYB5-3 211-329); assay: NMR titration
T1 sequence (looked up): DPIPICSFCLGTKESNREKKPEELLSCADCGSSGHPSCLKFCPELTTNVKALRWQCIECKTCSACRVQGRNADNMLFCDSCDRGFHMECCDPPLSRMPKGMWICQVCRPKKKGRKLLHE

[2] = target: MOZ PHD1/2 fingers (aa 207-318) (human, UniProt Q92794 207-318); assay: other fluorescence titration
MOZ PHD1/2 fingers (aa 207-318), sequence (Q92794 207-318): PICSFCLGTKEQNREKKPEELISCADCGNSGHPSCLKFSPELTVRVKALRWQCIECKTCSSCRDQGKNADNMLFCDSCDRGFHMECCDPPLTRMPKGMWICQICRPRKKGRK

[3] = target: T1, MORF PHD1/2 fingers (aa 211-329); assay: other fluorescence titration

B1: unmodified histone H3 peptide, amino acids 1-12 (peptide, UniProt P68431 2-13, looked up)
peptide: ARTKQTARKSTG
B1: binds [1].

B2: histone H3 peptide trimethylated at Lys4 and acetylated at Lys9 (peptide)
chain: ARTK(Me3)QTARK(Ac)STG
B2 was tested, and the “fold stronger than H3K4me3” value [1] was roughly 4 fold.

B3: histone H3 peptide acetylated at Lys9 (length not stated for the experiment) (peptide)
chain: ARTKQTARKSTG
modifications: acetyl-lysine at 9
Work on B3 yielded a Kd [2] of 1.5 µM and a Kd [3] of 1.4 µM.

B4: histone H3 peptide acetylated at Lys9, amino acids 1-12 (peptide, UniProt P68431 2-13, looked up)
peptide: ARTKQTARKSTG
modifications: acetyl-lysine at 9
B4: binds [1].

B5: histone H3 peptide trimethylated at Lys4 (peptide)
chain: ARTK(Me3)QTARKSTG
B5 was tested, and the Kd [1] was roughly 2000 µM.
